One data set has as its system T1, Dtt_PhiR1‐37.
T1 construct: gene Dtt; recombinant from codon-optimized synthetic gene in HMT plasmid, N-terminal His6-MBP tag, amylose column, E. coli
The data set is described as follows: phosphomolybdate phosphate release, coupled inorganic pyrophosphatase IPP1. Format: biochemical, Yersinia phage phiR1-37. The note with it: 2 mM Mg2+, 50 mM Tris-HCl pH 7.5, room temperature; read-out: kinetic parameters. An excerpt: phosphomolybdate phosphate release, coupled inorganic pyrophosphatase IPP1 on Dtt_PhiR1‐37

For the next data set, the system named is T2, Dcd_PhiR1‐37.
T2 construct: gene Dcd; recombinant from codon-optimized synthetic gene in HMT plasmid, N-terminal His6-MBP tag, amylose column, E. coli
The data set is described as follows: UV absorbance at […] nm, deamination. Format: biochemical, Yersinia phage phiR1-37. The note with it: Mg2+ (table; methods text says 2 mM Mn2+), 50 mM Tris-HCl pH 7.5, room temperature; read-out: kinetic parameters.

The target in another data set is T3, Dcd_PBS1 (Bacillus phage PBS1, UniProt A0A223LD31).
T3 construct: gene 112; recombinant from codon-optimized synthetic gene in HMT plasmid, N-terminal His6-MBP tag, amylose column, E. coli
T3 sequence (A0A223LD31 1-176): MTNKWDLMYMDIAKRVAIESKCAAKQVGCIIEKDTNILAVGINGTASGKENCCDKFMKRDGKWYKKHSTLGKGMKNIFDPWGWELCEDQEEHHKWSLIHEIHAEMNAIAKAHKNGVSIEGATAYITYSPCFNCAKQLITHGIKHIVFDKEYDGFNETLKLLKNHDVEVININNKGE
Kind of data set: inhibition of dCTP deamination (details in supplement). Format: biochemical. The note with it: inhibitor (negative regulation); also the reaction product.

Substrate in data set [1]: Nc1ccn([C@H]2C[C@H](O)[C@@H](COP(=O)(O)O)O2)c(=O)n1
The data set is described as follows: purified protein. The note with it: 2 mM Mn2+, 50 mM Tris-HCl pH 7.5, room temperature. The class given is biochemical, Sulfurimonas gotlandica.

Substrate in data set [2]: Nc1ccn([C@H]2C[C@H](O)[C@@H](COP(=O)(O)OP(=O)(O)O)O2)c(=O)n1
Kind of data set: purified protein. The class given is biochemical, Sulfurimonas gotlandica. The note with it: 2 mM Mn2+, 50 mM Tris-HCl pH 7.5, room temperature.

Substrate in data set [3]: Nc1ccn([C@H]2C[C@H](O)[C@@H](COP(=O)(O)OP(=O)(O)OP(=O)(O)O)O2)c(=O)n1
The data set is described as follows: purified protein. The class given is biochemical, Sulfurimonas gotlandica. The note with it: 2 mM Mn2+, 50 mM Tris-HCl pH 7.5, room temperature.

Substrate in data set [4]: Nc1ccn([C@H]2C[C@H](O)[C@@H](COP(=O)(O)OP(=O)(O)OP(=O)(O)O)O2)c(=O)n1
Kind of data set: purified protein. The class given is biochemical, Bacillus phage PBS1. The note with it: 2 mM Mn2+, 50 mM Tris-HCl pH 7.5, room temperature.

Substrate in data set [5]: Nc1ccn([C@H]2C[C@H](O)[C@@H](COP(=O)(O)O)O2)c(=O)n1
Kind of data set: purified protein. The class given is biochemical, Exiguobacterium artemiae. The note with it: Co2+ is best metal (methods text for kinetics says 2 mM Mn2+), 50 mM Tris-HCl pH 7.5, room temperature.

Substrate in data set [6]: Nc1ccn([C@H]2C[C@H](O)[C@@H](COP(=O)(O)OP(=O)(O)O)O2)c(=O)n1
Kind of data set: purified protein. Format: biochemical, Exiguobacterium artemiae. The note with it: Co2+ is best metal (methods text for kinetics says 2 mM Mn2+), 50 mM Tris-HCl pH 7.5, room temperature.

Substrate in data set [7]: Nc1ccn([C@H]2C[C@H](O)[C@@H](COP(=O)(O)OP(=O)(O)OP(=O)(O)O)O2)c(=O)n1
The data set is described as follows: purified protein. The class given is biochemical, Exiguobacterium artemiae. The note with it: Co2+ is best metal (methods text for kinetics says 2 mM Mn2+), 50 mM Tris-HCl pH 7.5, room temperature.

Substrate in data set [8]: Cc1cn([C@H]2C[C@H](O)[C@@H](COP(=O)(O)O)O2)c(=O)[nH]c1=O
Kind of data set: phosphomolybdate phosphate release. Format: biochemical, Bacteriophage DSS3_VP1. The note with it: 2 mM Co2+, 50 mM Tris-HCl pH 7.5, room temperature. An excerpt:
(§1) phosphomolybdate phosphate release on Dtm_DSS3_VP1

Substrate in data set [9]: O=c1ccn([C@H]2C[C@H](O)[C@@H](COP(=O)(O)O)O2)c(=O)[nH]1
The data set is described as follows: phosphomolybdate phosphate release. Format: biochemical, Bacteriophage DSS3_VP1. The note with it: 2 mM Co2+, 50 mM Tris-HCl pH 7.5, room temperature.
From the text: as §1

Substrate in data set [10]: Nc1ccn([C@H]2C[C@H](O)[C@@H](COP(=O)(O)O)O2)c(=O)n1
The data set is described as follows: purified protein. The class given is biochemical, Bacteriophage DSS3_VP1. The note with it: 2 mM Mn2+, 50 mM Tris-HCl pH 7.5, room temperature.

Substrate in data set [11]: Nc1ccn([C@H]2C[C@H](O)[C@@H](COP(=O)(O)OP(=O)(O)O)O2)c(=O)n1
The data set is described as follows: purified protein. The class given is biochemical, Bacteriophage DSS3_VP1. The note with it: 2 mM Mn2+, 50 mM Tris-HCl pH 7.5, room temperature.

Substrate in data set [12]: Nc1ccn([C@H]2C[C@H](O)[C@@H](COP(=O)(O)OP(=O)(O)OP(=O)(O)O)O2)c(=O)n1
Kind of data set: purified protein. The class given is biochemical, Bacteriophage DSS3_VP1. The note with it: 2 mM Mn2+, 50 mM Tris-HCl pH 7.5, room temperature.

Substrate in data set [13]: Cc1cn([C@H]2C[C@H](O)[C@@H](COP(=O)(O)O)O2)c(=O)[nH]c1=O
The data set is described as follows: phosphomolybdate phosphate release. Format: biochemical, Bacillus phage PBS1. The note with it: Mg2+ (table; methods text says 2 mM Co2+), 50 mM Tris-HCl pH 7.5, room temperature. An excerpt: phosphomolybdate phosphate release on Dtm_PBS1

With `Cc1cn([C@H]2C[C@H](O)[C@@H](COP(=O)(O)OP(=O)(O)OP(=O)(O)O)O2)c(=O)[nH]c1=O` [dTTP], the Km with Dtt_PhiR1‐37 was determined as 108 ± 11 µM.

On to `Nc1nc2c(ncn2[C@H]2C[C@H](O)[C@@H](COP(=O)(O)OP(=O)(O)OP(=O)(O)O)O2)c(=O)[nH]1` [dGTP], for which the Km with Dtt_PhiR1‐37 came to 440 ± 110 µM.

`Nc1ccn([C@H]2C[C@H](O)[C@@H](COP(=O)(O)OP(=O)(O)OP(=O)(O)O)O2)c(=O)n1` [dCTP]: the Km in the data set with Dcd_PhiR1‐37 was 117 ± 31 µM.

For `O=c1ccn([C@H]2C[C@H](O)[C@@H](COP(=O)(O)OP(=O)(O)OP(=O)(O)O)O2)c(=O)[nH]1` [dUTP], the Km in the data set with Dtt_PhiR1‐37 was 145 ± 16 µM. Also, at Dcd_PBS1, the “inhibition of dCTP deamination (details in supplement)” value was “Bacillus phage PBS1 Dcd is negatively regulated by dUTP (Figure S9, Supporting Information)”.

B1: S. gotlandica cytidine nucleotide deaminase (Sulfurimonas gotlandica GD1) (protein)
chain: MLSDQNFINIAQELATASKCVSKQVGAVIVKDGRILSTGYNGTPAGFTNCCDHWNGEYTPDHHEWSKTYEIHAEMNAIIWAARKGISIEGASIFVTLEPCSECSKNLIASGIKRIVYAKEYEHTHSDTISKFIKDNGVSIEQLAPKV
notes: recombinant from codon-optimized synthetic gene in HMT plasmid, N-terminal His6-MBP tag, amylose column, E. coli
Take B1: the values for the Km in the data set “purified protein [1]”, in the data set “purified protein [2]” and in “purified protein [3]” were 661 ± 178 µM, 271 ± 90 µM and 293 ± 88 µM, respectively. In addition, the kcat in “purified protein [1]” was 0.28 ± 0.05 s⁻¹; in “purified protein [2]” it was 0.5 ± 0.1 s⁻¹; in the data set “purified protein [3]”, 0.06 ± 0.01 s⁻¹.

B2: Dcd_PBS1 (Bacillus phage PBS1) (protein)
chain: MTNKWDLMYMDIAKRVAIESKCAAKQVGCIIEKDTNILAVGINGTASGKENCCDKFMKRDGKWYKKHSTLGKGMKNIFDPWGWELCEDQEEHHKWSLIHEIHAEMNAIAKAHKNGVSIEGATAYITYSPCFNCAKQLITHGIKHIVFDKEYDGFNETLKLLKNHDVEVININNKGE
notes: as for B1
As to B2, in “purified protein [4]”, the Km turned out to be 137 ± 23 µM and the kcat was found to be 15.4 ± 1 s⁻¹.

B3: E. sibiricum cytidine nucleotide deaminase (Exiguobacterium artemiae 255-15) (protein)
chain: MMKKQHQWDTTWLLFARMMADRHSKCASKSVACVIVKDEKPISIGINGTPSQHVNCNEIYLKQDNILYKAEAERQQEKADALSIVHNGQVFYRCDNQEEHHEWSKMNEIHAEINALGKLAADSTSARHATAYVTHSPCHACSLALIASKIDRVVYSTGYEYGDGLTLMRQSEIEVLHRPLTEEYFLERIFDKDL
notes: as for B1
As for B3, the Km in “purified protein [5]” is given as 415 ± 143 µM; in the data set “purified protein [6]”, 179 ± 31 µM; in the data set “purified protein [7]”, 186 ± 35 µM. In addition, the kcat amounted to 0.05 ± 0.01 s⁻¹ in “purified protein [5]”, 21.2 ± 1.9 s⁻¹ in the data set “purified protein [6]” and 0.9 ± 0.1 s⁻¹ in “purified protein [7]”.

B4: Dtm_DSS3_VP1 (Bacteriophage DSS3_VP1) (protein)
chain: MCNEKIALGYELYTSGYVNRYHSHPHPHLRNAQDLTDAHSNRMVKLLYLFFPELAHRGTLVAYIVMHDAGESASGDSPFTAKIANPKLKEALDEVEGQRLAQFYGLFQNDLRIDLTQKEENVVKLLDLLESFLFQAIHAPGRMDEEHHLFQNIEKRARELEVYPEVRCMMMHALHRNNAATKGY
notes: as for B1
For B4, the Km in [8] was determined as 22 ± 4 µM; in data set [9] it was 170 ± 15 µM. For the same molecule, the kcat is 3.1 ± 0.1 s⁻¹ in [8] and 1 ± 0.1 s⁻¹ in data set [9].

B5: Dcd_DSS3_VP1 (Bacteriophage DSS3_VP1) (protein)
chain: MHSWDKRFMEMAELVASWSKDPRTKVGCVLADSKHRVLGVGYNGFPRGVNDRDDRYANREVKLAMVKHAEENAVFNAAKHDLSDAVAYVTLAPCSSCAGTLIQAGVRRVVFPEPDPEHMTRHYGNYELMLQMLSEARVLKSVITKEGVIK
notes: as for B1
On to B5, for which the Km in the data set “purified protein [10]” was determined as 257 ± 55 µM; in “purified protein [11]”, 144 ± 44 µM; in “purified protein [12]”, 114 ± 22 µM. In addition, the kcat in the data set “purified protein [10]” is 1 ± 0.1 s⁻¹; in the data set “purified protein [11]”, 5.6 ± 0.8 s⁻¹; in “purified protein [12]”, 8.9 ± 0.7 s⁻¹.

B6: Dtm_PBS1 (Bacillus phage PBS1) (protein)
chain: MFSIKEPFSIVTDCDEVLTDISPLWVHKIQQNADYFGKYFDLSKLEGLEFGTFEHYQTVLSRPEFHLNKWLRKENLVLSDEEEKELFERFYSLYDNDEFYEDCMPTKMCEGIYKLSLQKFVDKIYVVTRTSEGTKEGKRKFIETFLNSNKVEIIFVGKNEKKSDYIKNLKNVKMIVEDELSNINDIVENCNDGFEEVDIYIPSTGYNNKDIDGFNENLMKKGFNAVPYVIIERPETEEKAV
notes: recombinant from pCold TF, E. coli BL21(DE3), N-terminal His6-Trigger factor-TEV site tag, Ni-NTA; tag kept
With B6, in data set [13], the Km is listed as 42 ± 8 µM and the kcat worked out at 0.0317 ± 0.0017 s⁻¹.

As usually defined, the kcat is the number of substrate molecules converted per active site and unit of time at saturation.

For the origin of these results see article PMC12697855, “Distinct Phage‐Encoded Enzymes for Substitution of Deoxythymidine by Deoxyuridine in Phage Genomes” (Advanced Science, 2025).
